# Data taken from article PMC6668441, “Comparative Study of Subcutaneous and Orthotopic Mouse Models of Prostate Cancer: Vascular Perfusion, Vasculature Density, Hypoxic Burden and BB2r-Targeting Efficacy” (Scientific Reports, 2019).
# Columns and labels:
# [1] = Biodistribution, BB2r-targeted uptake, subcutaneous PC-3 xenograft model; conditions: female, NOD SCID, mouse, iv, total radioactivity, 1 h 5 min p.i., mean ± SD; for dose excreted at 65 min: urine and faeces, excretion (urine and fecal material)
# [2] = Radiochemical stability in stabilizing buffers (RP-HPLC); format: physicochemical; conditions: PBS, 0.37 MBq in 1 mL, 4 °C, 72 h
# Experimental: Briefly, 0.37 MBq of radiolabeled compounds were incubated with 1 mL of: A) PBS; B) ascorbic acid in 0.9% sodium chloride solution (40 mg/ml); and C) Selenomethionine (0.2 mg/ml) and ascorbic acid (40 mg/ml) in 0.9% sodium chloride solution at 4 °C for 24, 48 and 72 h. The stability of the radioconjugate at each time point was calculated based on the integration of the RP-HPLC chromatograms.
# (§1) Peptide synthesis was performed using an automated solid-phase peptide synthesizer employing traditional Fmoc chemistry and using a Rink Amide resin. Briefly, the resin (100 µmol of the resin substituted peptide anchors) was deprotected using piperidine, resulting in the formation of a primary amine from which the C-terminus of the growing peptide was anchored.
# The Fmoc protected amino acids (300 µmol) with appropriate orthogonal protection were activated with HBTU and sequentially added to the resin. […] All conjugate were peak purified to • 95% purity and quantified by RP-HPLC prior to in vitro/in vivo investigations. […]
# (§2) The partition coefficient was determined for the 177Lu-labeled conjugate. […] Aliquots of 100 µL were taken from each layer and the radioactivity of each was quantified by a Ȗ-counter. […]
# physchem = format: physicochemical; conditions: pH 7.4
# Experimental: as §1
# The Fmoc protected amino acids (300 µmol) with appropriate orthogonal protection were activated with HBTU and sequentially added to the resin. The resulting peptide was orthogonally deprotected and cleaved from the resin using a cocktail consisting of triisopropyl silane (0.1 mL), water (0.1 mL), 3,6-dioxa-1,8-octanedithiol (0.1 mL), trifluoroacetic acid (4.625 mL) and thioanisole (0.075 mL), respectively. The cleaved peptide was subsequently precipitated and washed using cold (0 °C) methyl-tert-butyl ether (10 mL×3). The crude conjugate was dried by a centrivap concentrator and weighed. ES-MS was used to determine the molecular mass of the prepared peptides. All conjugate were peak purified to • 95% purity and quantified by RP-HPLC prior to in vitro/in vivo investigations.
# HPLC Purification and Analysis Methodology […]
# as §2
structure (smiles),measurement,setting,value
"CSCC[C@H](NC(=O)[C@H](CC(C)C)NC(=O)[C@H](Cc1c[nH]cn1)NC(=O)CNC(=O)[C@@H](NC(=O)[C@H](C)NC(=O)[C@H](Cc1c[nH]c2ccccc12)NC(=O)[C@H](CCC(N)=O)NC(=O)CCOCCOCCOCCOCCNC(=O)[C@@H](CO)NC(=O)[C@@H](CO)NC(=O)[C@@H](CO)NC(=O)[C@@H](CO)NC(=O)[C@@H](CO)NC(=O)CN1CCN(CC(=O)O)CCN(CC(=O)O)CCN(CC(=O)O)CC1)C(C)C)C(N)=O [[^177Lu]Lu-DOTA-SP714, metal not drawn]",tissue uptake at 65 min,"[1]; blood, 10 uCi, blood uptake, tumor volume 300-700 mm^3, 10 µCi i.v.",0.78 ± 0.81 %ID/g
same,tissue uptake at 65 min,"[1]; blood, 10 uCi, blood uptake, tumor volume <300 mm^3, 10 µCi i.v.",0.49 ± 0.4 %ID/g
same,tissue uptake at 65 min,"[1]; blood, 10 uCi, blood uptake, tumor volume >700 mm^3, 10 µCi i.v.",2.27 ± 0.6 %ID/g
same,tissue uptake at 65 min,"[1]; bone, 10 uCi, bone uptake, tumor volume 300-700 mm^3, 10 µCi i.v.",0.26 ± 0.19 %ID/g
same,tissue uptake at 65 min,"[1]; bone, 10 uCi, bone uptake, tumor volume <300 mm^3, 10 µCi i.v.",0.2 ± 0.12 %ID/g
same,tissue uptake at 65 min,"[1]; bone, 10 uCi, bone uptake, tumor volume >700 mm^3, 10 µCi i.v.",0.67 ± 0.07 %ID/g
same,tissue uptake at 65 min,"[1]; brain, 10 uCi, brain uptake, tumor volume 300-700 mm^3, 10 µCi i.v.",0.03 ± 0.01 %ID/g
same,tissue uptake at 65 min,"[1]; brain, 10 uCi, brain uptake, tumor volume <300 mm^3, 10 µCi i.v.",0.03 ± 0.02 %ID/g
same,tissue uptake at 65 min,"[1]; brain, 10 uCi, brain uptake, tumor volume >700 mm^3, 10 µCi i.v.",0.09 ± 0.05 %ID/g
same,tissue uptake at 65 min,"[1]; heart, 10 uCi (370 kBq), heart uptake, tumor volume 300-700 mm^3, 10 µCi i.v.",0.16 ± 0.03 %ID/g
same,tissue uptake at 65 min,"[1]; heart, 10 uCi (370 kBq), heart uptake, tumor volume >700 mm^3, 10 µCi i.v.",0.68 ± 0.48 %ID/g
same,tissue uptake at 65 min,"[1]; heart, 10 uCi, heart uptake, tumor volume <300 mm^3, 10 µCi i.v.",0.16 ± 0.05 %ID/g
same,tissue uptake at 65 min,"[1]; kidney, 10 uCi, kidney uptake, tumor volume 300-700 mm^3, 10 µCi i.v.",2.59 ± 1.02 %ID/g
same,tissue uptake at 65 min,"[1]; kidney, 10 uCi, kidney uptake, tumor volume <300 mm^3, 10 µCi i.v.",2.75 ± 1.29 %ID/g
same,tissue uptake at 65 min,"[1]; kidney, 10 uCi, kidney uptake, tumor volume >700 mm^3, 10 µCi i.v.",6.64 ± 2.83 %ID/g
same,tissue uptake at 65 min,"[1]; large intestine, 10 uCi, large intestine uptake, tumor volume 300-700 mm^3, 10 µCi i.v.",2.63 ± 2.12 %ID/g
same,tissue uptake at 65 min,"[1]; large intestine, 10 uCi, large intestine uptake, tumor volume <300 mm^3, 10 µCi i.v.",1.38 ± 0.75 %ID/g
same,tissue uptake at 65 min,"[1]; large intestine, 10 uCi, large intestine uptake, tumor volume >700 mm^3, 10 µCi i.v.",3.75 ± 2.89 %ID/g
same,tissue uptake at 65 min,"[1]; liver, 10 uCi, liver uptake, tumor volume 300-700 mm^3, 10 µCi i.v.",0.31 ± 0.06 %ID/g
same,tissue uptake at 65 min,"[1]; liver, 10 uCi, liver uptake, tumor volume <300 mm^3, 10 µCi i.v.",0.29 ± 0.12 %ID/g
same,tissue uptake at 65 min,"[1]; liver, 10 uCi, liver uptake, tumor volume >700 mm^3, 10 µCi i.v.",0.9 ± 0.49 %ID/g
same,tissue uptake at 65 min,"[1]; lung, 10 uCi (370 kBq), lung uptake, tumor volume 300-700 mm^3, 10 µCi i.v.",0.64 ± 0.39 %ID/g
same,tissue uptake at 65 min,"[1]; lung, 10 uCi (370 kBq), lung uptake, tumor volume <300 mm^3, 10 µCi i.v.",1.08 ± 1.55 %ID/g
same,tissue uptake at 65 min,"[1]; lung, 10 uCi, lung uptake, tumor volume >700 mm^3, 10 µCi i.v.",1.39 ± 0.67 %ID/g
same,tissue uptake at 65 min,"[1]; muscle, 10 uCi, muscle uptake, tumor volume 300-700 mm^3, 10 µCi i.v.",0.15 ± 0.07 %ID/g
same,tissue uptake at 65 min,"[1]; muscle, 10 uCi, muscle uptake, tumor volume <300 mm^3, 10 µCi i.v.",0.17 ± 0.12 %ID/g
same,tissue uptake at 65 min,"[1]; muscle, 10 uCi, muscle uptake, tumor volume >700 mm^3, 10 µCi i.v.",0.46 ± 0.24 %ID/g
same,tissue uptake at 65 min,"[1]; pancreas, 10 uCi, pancreas uptake, tumor volume 300-700 mm^3, 10 µCi i.v.",23.8 ± 8.43 %ID/g
same,tissue uptake at 65 min,"[1]; pancreas, 10 uCi, pancreas uptake, tumor volume <300 mm^3, 10 µCi i.v.",19.4 ± 13 %ID/g
same,tissue uptake at 65 min,"[1]; pancreas, 10 uCi, pancreas uptake, tumor volume >700 mm^3, 10 µCi i.v.",22.6 ± 7.83 %ID/g
same,tissue uptake at 65 min,"[1]; small intestine, 10 uCi, small intestine uptake, tumor volume 300-700 mm^3, 10 µCi i.v.",2.82 ± 1.14 %ID/g
same,tissue uptake at 65 min,"[1]; small intestine, 10 uCi, small intestine uptake, tumor volume <300 mm^3, 10 µCi i.v.",2.53 ± 1.39 %ID/g
same,tissue uptake at 65 min,"[1]; small intestine, 10 uCi, small intestine uptake, tumor volume >700 mm^3, 10 µCi i.v.",4.21 ± 1.92 %ID/g
same,tissue uptake at 65 min,"[1]; spleen, 10 uCi, spleen uptake, tumor volume 300-700 mm^3, 10 µCi i.v.",2.53 ± 1.31 %ID/g
same,tissue uptake at 65 min,"[1]; spleen, 10 uCi, spleen uptake, tumor volume <300 mm^3, 10 µCi i.v.",1.46 ± 1.32 %ID/g
same,tissue uptake at 65 min,"[1]; spleen, 10 uCi, spleen uptake, tumor volume >700 mm^3, 10 µCi i.v.",3.02 ± 0.63 %ID/g
same,tissue uptake at 65 min,"[1]; stomach, 10 uCi, stomach uptake, tumor volume 300-700 mm^3, 10 µCi i.v.",1.68 ± 0.85 %ID/g
same,tissue uptake at 65 min,"[1]; stomach, 10 uCi, stomach uptake, tumor volume <300 mm^3, 10 µCi i.v.",0.94 ± 0.53 %ID/g
same,tissue uptake at 65 min,"[1]; stomach, 10 uCi, stomach uptake, tumor volume >700 mm^3, 10 µCi i.v.",4.89 ± 3.52 %ID/g
same,tissue uptake at 65 min,"[1]; tumor, 10 uCi, tumor uptake, tumor volume 300-700 mm^3, 10 µCi i.v.",5.35 ± 1.75 %ID/g
same,tissue uptake at 65 min,"[1]; tumor, 10 uCi, tumor uptake, tumor volume <300 mm^3, 10 µCi i.v.",4.16 ± 1.74 %ID/g
same,tissue uptake at 65 min,"[1]; tumor, 10 uCi, tumor uptake, tumor volume >700 mm^3, 10 µCi i.v.",9.44 ± 3.66 %ID/g
same,dose excreted at 65 min,"[1]; 10 uCi, tumor volume 300-700 mm^3, 10 µCi i.v.",73.2 ± 7%
same,dose excreted at 65 min,"[1]; 10 uCi, tumor volume <300 mm^3, 10 µCi i.v.",68.5 ± 23.4%
same,dose excreted at 65 min,"[1]; 10 uCi, tumor volume >700 mm^3, 10 µCi i.v.",59 ± 12.4%
same,radiolytic degradation,[2],39.9%
same,logD,physchem,-2.2 ± 0.1
